Measured values as given in PMC5454011.

How the values were obtained:
[1] = biological target: MrsD-protein A fusion protein (shared helix method) (not stated | Staphylococcus aureus); test: crystal structure; vapour diffusion; crystals of a single fusion protein
[2] = biological target: YgjG-protein A fusion protein (shared helix method) (E. coli | Staphylococcus aureus); test: crystal structure; vapour diffusion; complex of YgjG-protein A with ZpA963-PKA_C
[3] = biological target: YgjG-protein A fusion protein (shared helix method) (E. coli | Staphylococcus aureus); test: crystal structure; vapour diffusion; complex of YgjG-protein A with ZpA963-calmodulin; 5 mM CaCl2 in all buffers

Row | stoichiometry N [1] | stoichiometry N [2] | stoichiometry N [3] | Substance
1 | 12 |  |  | MrsD-protein A fusion protein (shared helix method)
2 |  | 4 | 4 | YgjG-protein A fusion protein (shared helix method)
